Results as given in publication PMC3834327, “N ^6-Substituted AMPs Inhibit Mammalian Deoxynucleotide N-Hydrolase DNPH1” (PLoS ONE, 2013).

Substrate: Nc1nc2c(ncn2[C@H]2C[C@H](O)[C@@H](COP(=O)(O)O)O2)c(=O)[nH]1
Assay: purified protein, by the assay type
Conditions: other: substrate of human DNPH1; double reciprocal plots, five concentrations; pH 7.0

B1: human DNPH1 (Homo sapiens) (protein)
chain: MAAAMVPGRSESWERGEPGRPALYFCGSIRGGREDRTLYERIVSRLRRFGTVLTEHVAAAELGARGEEAAGGDRLIHEQDLEWLQQADVVVAEVTQPSLGVGYELGRAVAFNKRILCLFRPQSGRVLSAMIRGAADGSRFQVWDYEEGEVEALLDRYFEADPPGQVAASPDPTT
- Km: 57 ± 12 µM
- kcat: 0.002 s⁻¹
- kcat/Km: 35 M⁻¹ s⁻¹
